How the values were obtained:
Biotinylated LILRB2 [1] = target: T1, Biotinylated LILRB2 (UniProt Q8N423 22-460, limits assumed, biotinylated (sites not given)); test: epitope binning ELISA; coated antibody 1 ug/ml, biotinylated LILRB2; competitor LK-RB2-3 at 20 ug/ml
T1 construct: also called biotinylated-LILRB2 protein

Biotinylated LILRB2 [2] = target: T1, Biotinylated LILRB2; test: epitope binning ELISA; coated antibody 1 ug/ml, biotinylated LILRB2; competitor LK-RB2-2 at 20 ug/ml
Description: (§1) Binding epitope of a subset of anti-LILRB1 and anti-LILRB2 antibodies was analyzed by epitope binning ELISA. Briefly, a panel of testing antibodies were coated onto ELISA plate. 50 ul/well Biotinylated LILRB1 or LILRB2 and 50 ul/well of competing antibodies were added to the coated plate and incubated at 37° C. for 1 hour. After Streptavidin-HRP (1:5000) incubation and TMB development, the plates were read at 450 nm using Molecular device spectra max plus384.

Biotinylated LILRB2 [3] = target: T1, Biotinylated LILRB2; test: epitope binning ELISA; coated antibody 1 ug/ml, biotinylated LILRB2; competitor hz73D1.v1 at 20 ug/ml
Description: as §1

Biotinylated LILRB2 [4] = target: T1, Biotinylated LILRB2; test: epitope binning ELISA; coated antibody 1 ug/ml, biotinylated LILRB2; competitor LK-RB2-24 at 20 ug/ml
Description: as §1

Biotinylated LILRB2 [5] = target: T1, Biotinylated LILRB2; test: epitope binning ELISA; coated antibody 1 ug/ml, biotinylated LILRB2; competitor LK-RB2-15 at 20 ug/ml
Description: as §1

Biotinylated LILRB2 [6] = target: T1, Biotinylated LILRB2; test: epitope binning ELISA; coated antibody 1 ug/ml, biotinylated LILRB2; competitor LK-RB2-14 at 20 ug/ml
Description: as §1

Biotinylated LILRB2 [7] = target: T1, Biotinylated LILRB2; test: epitope binning ELISA; coated antibody 1 ug/ml, biotinylated LILRB2; competitor J19.h1 at 20 ug/ml
Description: as §1

human LILRA1 = target: T2, human LILRA1 (human, UniProt O75019 17-461, limits assumed); test: ELISA, OD450, antibody at 200 nM; + = 2-fold over ISO
T2 construct: bought protein coated for ELISA; also called hLILRA1
T2 sequence (O75019 17-461 limits assumed): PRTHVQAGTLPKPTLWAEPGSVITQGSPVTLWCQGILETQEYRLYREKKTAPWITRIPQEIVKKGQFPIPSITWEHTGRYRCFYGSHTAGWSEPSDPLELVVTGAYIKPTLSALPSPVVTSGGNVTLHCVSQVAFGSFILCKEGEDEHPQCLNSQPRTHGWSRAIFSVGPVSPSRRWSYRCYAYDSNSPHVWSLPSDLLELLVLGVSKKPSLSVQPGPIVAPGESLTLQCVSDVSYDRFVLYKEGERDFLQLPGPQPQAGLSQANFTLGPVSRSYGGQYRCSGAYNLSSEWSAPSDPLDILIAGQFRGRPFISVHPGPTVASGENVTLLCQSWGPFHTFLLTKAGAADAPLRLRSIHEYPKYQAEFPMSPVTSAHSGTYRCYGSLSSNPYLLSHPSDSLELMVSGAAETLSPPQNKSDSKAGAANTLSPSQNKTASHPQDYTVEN
Description: To further confirm binding affinity, selected clones were assayed in ELISA or FACS in a range of testing concentrations.

human LILRB2-his = target: T3, human LILRB2-his (human, UniProt Q8N423 22-460, limits assumed); test: SPR (Biacore 8K), antibody captured via Fc, LILRB2-his as analyte, 1:1 model
T3 construct: Analyte of the Biacore run; not shown: His tag
T3 sequence (Q8N423 22-460 limits assumed): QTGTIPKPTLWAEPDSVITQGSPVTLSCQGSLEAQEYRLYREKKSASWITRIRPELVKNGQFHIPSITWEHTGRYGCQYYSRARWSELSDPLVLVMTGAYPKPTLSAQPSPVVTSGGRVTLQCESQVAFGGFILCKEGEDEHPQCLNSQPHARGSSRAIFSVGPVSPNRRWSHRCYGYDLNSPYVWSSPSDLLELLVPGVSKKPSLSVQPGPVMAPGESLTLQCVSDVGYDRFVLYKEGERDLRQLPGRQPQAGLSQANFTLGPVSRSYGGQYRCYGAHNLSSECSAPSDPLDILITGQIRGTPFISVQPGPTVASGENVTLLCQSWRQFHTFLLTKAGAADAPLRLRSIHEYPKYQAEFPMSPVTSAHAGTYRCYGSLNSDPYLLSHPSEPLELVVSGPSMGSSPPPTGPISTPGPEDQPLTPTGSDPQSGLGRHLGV

[8] = target: T4, Cynomolgus LILRB2 on CHOK1 cells (cynomolgus); test: flow cytometry on CHOK1-cyno LILRB2 cells
T4 construct: whole, on cells; also called CHOK1-Cyno LILRB2
Excerpt: Anti-LILRB1 and anti-LILRB2 antibodies were also screened for their ability to bind rhesus macaque LILRB1 (Kactusbio, LLC: LIL-CM1B1 and LIL-CM1B3), cynomolgus LILRB1 (Kactusbio, LLC: LIL-CM1B2) and cynomolgus LILRB2 (Kactusbio, LLC: LIL-CM1B5) by ELISA and flow cytometry.

[9] = target: T5, Rhesus LILRB1 (F7H3G7) on CHOK1 cells (rhesus macaque); test: flow cytometry on CHOK1-rhesus LILRB1 (F7H3G7) cells
T5 construct: whole, on cells; also called CHOK1-Rhesus LILRB1 (F7H3G7)

human LILRB1-his = target: T6, human LILRB1-his (human, UniProt Q8NHL6 24-458, limits assumed); test: SPR (Biacore 8K), antibody captured via Fc, LILRB1-his as analyte, 1:1 model
T6 construct: Analyte of the Biacore run; not shown: His tag
T6 sequence (Q8NHL6 24-458 limits assumed): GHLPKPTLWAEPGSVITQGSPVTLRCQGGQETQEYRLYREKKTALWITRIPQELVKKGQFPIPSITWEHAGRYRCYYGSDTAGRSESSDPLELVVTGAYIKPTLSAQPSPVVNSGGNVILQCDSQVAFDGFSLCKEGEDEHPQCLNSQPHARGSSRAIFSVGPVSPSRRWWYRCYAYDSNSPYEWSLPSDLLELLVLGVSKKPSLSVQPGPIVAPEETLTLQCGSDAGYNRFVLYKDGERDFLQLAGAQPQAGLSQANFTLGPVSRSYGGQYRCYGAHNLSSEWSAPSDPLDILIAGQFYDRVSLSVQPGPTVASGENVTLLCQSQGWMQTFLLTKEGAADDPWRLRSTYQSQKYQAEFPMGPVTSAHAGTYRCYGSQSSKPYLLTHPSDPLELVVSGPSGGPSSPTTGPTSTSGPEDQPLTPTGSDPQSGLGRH

T1 sequence (Q8N423 22-460 limits assumed): as the sequence (Q8N423 22-460 limits assumed) above

Binder | Inhibition % (Biotinylated LILRB2 [1]) [%] | Inhibition % (Biotinylated LILRB2 [2]) [%] | Inhibition % (Biotinylated LILRB2 [3]) [%] | Inhibition % (Biotinylated LILRB2 [4]) [%] | Inhibition % (Biotinylated LILRB2 [5]) [%] | Inhibition % (Biotinylated LILRB2 [6]) [%] | Inhibition % (Biotinylated LILRB2 [7]) [%] | EC50 [8] [nM] | also measured
LK-RB1-48 (antibody, human IgG4 S228P, kappa, V domains shown, anti-LILRB1 clone from mouse hybridoma) VH: EVKLVESGGGLVQPGGSLKLSCAASGFTFSDYYMYWVRQTPEKRLEWVAYISNGGGISFYPDTVKGRFTISRDNAKNTLYLQMSRLKSEDTAIYYCASATKEVGAMDYWGQGTSVTVSS VL: DIVMTQSQKFLSTTVGDRVSITCKASQNVGTAVAWYQQKPGQSPKILIYSASNRYTGVPDRFTGSGSGTDFTLTISNMQSEDLADYFCQQYSSYRTFGGGTKLEIKR | – | – | – | – | – | – | – | – | binding result (human LILRA1): binds
LK-RB2-2 (antibody, human IgG4 S228P, kappa, V domains shown, Anti-LILRB2 antibody from mouse hybridoma; parental antibody of LK-RB2-2.h1 to h3) VH: DVKLEESGEGLVKPGGSLKLSCAASGFTFSSYAMSWVRQTPEKRLEWVAYISSGGDYFHYADTVKGRFTISRDNARNTLYLQMSSLKSEDTAMYYCTREGAHYDSSYLAWFAHWGQGTLVTVSA VL: DIQMTQSPASLSVSVGETVTITCRASENIYSNLAWYQQRQGKSPQLLVYAATNLADGVPSRFSGSGSGTQYSLKINSLQSEDFGSYYCQQFWDNPLTFGAGTKLELKR | 93.9 | 97.8 | 92.8 | 17.7 | 13.6 | 89.4 | 69.6 | – | Kd (human LILRB2-his): 0.168 nM; koff (human LILRB2-his): 0.000134 s⁻¹; kon (human LILRB2-his): 800000 M⁻¹ s⁻¹
LK-RB1-39 (antibody, human IgG4 S228P, kappa, V domains shown, Anti-LILRB1 antibody) VH: EVQLQQSGAELVRPGASVKLSCTASGFNIKDDYVHWVNQRPEQGLEWIGWIDPENGDTGYASKFQDKATITADTSSNTAYLHLSSLTSEDTAVYYCTTTRWTGSYWGQGTTLTVSS VL: QIVLTQSPAIMSASPGEKVTITCSASSSVNYMHWFQQKPGSSPKLWIYSTANLASGVPARFSGSGSGTSYSLTISRMEAEDAATYYCQQRSSYPPTWTFGGGTKLEIKR | – | – | – | – | – | – | – | 0.36 | –
J19.h1 (antibody, human IgG4 S228P, kappa, V domains shown) VH: QITLKESGPTLVKPTQTLTLTCTFSGFSLNTYAMGVSWIRQPPGKALEWLASIWWNGNKYNNPSLKSRLTVTKDTSKNQVVLTMTNMDPVDTATYYCAHSRIIRFTDYVMDAWGQGTLVTVSS VL: DIQMTQSPSSLSTSVGDRVTITCRASEDIYNDLAWYQQKPGKAPKLLIYNANSLHTGVASRFSGSGSGTDFTFTISSLQPEDVATYFCQQYYDYPLTFGQGTKLEIKR | 93.9 | 97.8 | 95.9 | 44.5 | 17.5 | 96.1 | 92.5 | – | –
15G8 (antibody, human IgG4 S228P, kappa, V domains shown) VH: DVQLQGSGPGLVKPSETLSLTCSVTGYSITSGYYWNWIRQFPGKKLEWMGYISYDGSNNYNPSLKNRITISRDTSKNQFSLKLNSVTAADTATYYCAHGYSYYYAMDAWGQGTSVTVSS VL: DIQMTQSPSSLSASVGDRVTITCRTSQDISNYLNWYQQKPGKAVKLLISYTSRLHSGVPSRFSGSGSGTDYTLTISSLQPEDFATYYCQQGNTLPTFGQGTKLEIKR | – | – | – | – | – | – | – | 2.15 | EC50 [9]: 760 nM
LK-RB1-5 (antibody, human IgG4 S228P, kappa, V domains shown, Anti-LILRB1 antibody) VH: QVQLQQPGAELVKPGASVKLSCKASGYTFTDFWIHWVKQRPGQGLEWIGMIHPNSGSTNFNEKFRAKATLTVDKSSSTAYMRLSSLTSEDSAVYYCARSGDGYSNPMDYWGQGTSVTVSS VL: QIVLSQSPAILSASPGEKVTLTCRASSSVSYMHWYQQKPGSSPKPWIYATSNLASGVPVRFSGSGSGTSYSLTISRMQTEDAATYYCQQWRRSPYTFGGGTKLEIKR | – | – | – | – | – | – | – | 1.16 | EC50 [9]: 1.51 nM
LK-RB2-3 (antibody, human IgG4 S228P, kappa, V domains shown, Anti-LILRB2 antibody from mouse hybridoma) VH: QLQLQQSDAELVKPGASVKISCKVSGYSFTDHTIHWMKQRPEQGLEWIGYIYPRDGSTKENEKFTGKATLTADKSSSTAYMQLTSLTSEDSAVYFCTGSGFDYWGQGTSLTVSS VL: DIKMTQSPSSMYASLGERVTITCKASQDIKSYLSWFQQKPGKSPKTLIYRANRLVDGVPSRFSGSGSGQDYSLTINSLEYEDMEIYYCLQYDEFPYTFGGGTKLEIKR | 96.7 | 96.9 | 33.7 | 32.2 | 5 | 24.9 | 9.71 | – | –

More lines, main results first:

Inhibition % (Biotinylated LILRB2 [1]) [%] | Inhibition % (Biotinylated LILRB2 [2]) [%] | Inhibition % (Biotinylated LILRB2 [3]) [%] | Inhibition % (Biotinylated LILRB2 [4]) [%] | Inhibition % (Biotinylated LILRB2 [5]) [%] | Inhibition % (Biotinylated LILRB2 [6]) [%] | Inhibition % (Biotinylated LILRB2 [7]) [%] | EC50 [8] [nM] | Binder | also measured
29.8 | 97.7 | 92.7 | 94.3 | 91.1 | 90.6 | 77.4 | – | LK-RB2-14 (antibody, human IgG4 S228P, kappa, V domains shown, Anti-LILRB2 antibody from mouse hybridoma) VH: QVQLKQSGPGLVQPSQSLSITCTVSGFSLTSYGVHWVRQSPGKGLEWLGVIWRGGSTDYNAAFMSRLSITKDNSKSQVFFKMNSLQADDTAIYYCAKNEGDSTVVAWYFDVWGTGTTVTVSS VL: DIQMTQTTSSLSASLGDRVTISCSASQGISNYLNWFQQKPDGTVKLLIYYTSSLHSGVPSRFSGSGSGTDYSLTISNLEPEDIATYYCQQYSKLPLTFGAGTKLELKR | –
– | – | – | – | – | – | – | 0.4 | LK-RB2-47 (antibody, human IgG4 S228P, kappa, V domains shown, Anti-LILRB2 antibody) VH: QVQLKQSGPGLVQPSQSLSITCTVSGFSLISYGVHWVRQSPGKGLEWLGVIWSGGSTDYNAAFISRLSISKDNSKSQVFFKMNSLQADDTAIYYCARSFHYHGSTFDYWGQGTTLTVSS VL: DIQMTQTTSSLSASLGDRVIISCRASQDINNYLNWYQQKPDGTVKLLIYFTSRLHSGVPSSFSGSGSGTDYSLTINNLEQEDIATYFCQQVNTLPYTFGGGTKLEIKR | –
65.3 | 97.8 | 96.8 | 22.4 | 6.43 | 91.8 | 74.8 | – | hz73D1.v1 (antibody, human IgG4 S228P, kappa, V domains shown) VH: QVQLVQSGAEVKKPGASVKVSCKASGYTFTDYYINWVRQAPGQGLEWMGNVNPNDGGTTYNQKFKGRVTMTTDTSTSTAYMELRSLRSDDTAVYYCARREIYFYGTIYYYAMDYWGQGTLVTVSS VL: DIQLTQSPSFLSASVGDRVTITCRASESVDYYGNSFMYWYQQKPGKAPKLLIYFASNLESGVPSRFSGSGSGTEFTLTISSLQPEDFATYYCQQNNEDPWTFGGGTKVEIKR | –
– | – | – | – | – | – | – | 19.8 | LK-RB2-8 (antibody, human IgG4 S228P, kappa, V domains shown, Anti-LILRB2 antibody) VH: QIQLVQSGPELKKPGETVKISCKASGYSFASYGMGWVKQAPGKGLKWLGWINTHSGVPTYADDFKGRFAFSLETSASTAYLQINNLKNEDTATYFCAHYGRPWFPYWGQGTLVTVSA VL: DIQMTQSPASLSASVGETVTITCRTSENIYSYLAWYQQKQGKSPQLLVYNAKSLAEGVPSRFSGSGSGTQFSLRINSLQPEDFGTYYCQQHYETPLTFGAGTKLELKR | –
– | – | – | – | – | – | – | 5.45 | LK-RB2-16 (antibody, human IgG4 S228P, kappa, V domains shown, Anti-LILRB2 antibody) VH: QIQLVQSGPELKKPGETVKISCKASGYTFTTYGMGWVKQAPEKGLKWMGWINTNSGAPTYGDDFKGRFAFSLETSASTAYLQINNLKNEDTATYFCAHYGRPWFAYWGQGTLVTVSA VL: DIQMTQSPASLSASVGETVTITCRASENIYSYLAWYHQKQGESPQLLVYNAKTLAEGVPSRFSGSGSGTQFSLKINSLQPEDFGSYYCQHHYNIPLTFGAGTKLELKR | –
22.1 | 47.1 | 15.1 | 96.8 | 94.3 | 85.4 | 8 | – | LK-RB2-15 (antibody, human IgG4 S228P, kappa, V domains shown, Anti-LILRB2 antibody from mouse hybridoma) VH: QIQLVQSGPELKKPGETVKISCKASGYTFTTYGMSWVKQAPGKGLKWMGWINVYSGVPTYADDFKGRFAFSLEISASTAYLQINNLKDEDTATYFCARRKDYSGHCFDYWGQGTTLTVSS VL: DIVLTQSPASLAVSLGQRATFSCRASESVDTYGISFMHWYQQKPGQPPKLLIYRASNLESGIPARFSGSGSRTDFTLTINPVETDDVATYYCQQSKKEPYTFGGGTKLEIKR | –
25.9 | 48.4 | 22.1 | 95.7 | 95.2 | 91.1 | -4.04 | – | LK-RB2-24 (antibody, human IgG4 S228P, kappa, V domains shown, Anti-LILRB2 antibody from mouse hybridoma; parental antibody of LK-RB2-24.h1 to h3) VH: QIQLVQSGPEVKKPGETVKISCKASGYTFTTYGMSWVKQAPGKGLKWMGWLNIYSGVPAYADDFKGRFAFSLESSASTAYLQINNLKNEDTATYFCARRENYDGYGMDYWGQGTSVTVSS VL: DIVMTQSPATLSVTPGDRVSLSCRASQSISDYLHWYQQKSHESPRLLIKYASQSISGIPSRFSGSGSGSDFTLSINSVEPEDVGVYYCQNGHSFPYTFGGGTKLEIKR | Kd (human LILRB1-his): 21.1 nM; koff (human LILRB1-his): 0.00406 s⁻¹; kon (human LILRB1-his): 192000 M⁻¹ s⁻¹; Kd (human LILRB2-his): 0.51 nM; koff (human LILRB2-his): 0.000484 s⁻¹; kon (human LILRB2-his): 950000 M⁻¹ s⁻¹
